Values quoted from earlier work in paper PMC8671138.

Target: CD47 (Homo sapiens) (UniProt Q08722)
UniProt Q08722, sequence (Q08722 19-323): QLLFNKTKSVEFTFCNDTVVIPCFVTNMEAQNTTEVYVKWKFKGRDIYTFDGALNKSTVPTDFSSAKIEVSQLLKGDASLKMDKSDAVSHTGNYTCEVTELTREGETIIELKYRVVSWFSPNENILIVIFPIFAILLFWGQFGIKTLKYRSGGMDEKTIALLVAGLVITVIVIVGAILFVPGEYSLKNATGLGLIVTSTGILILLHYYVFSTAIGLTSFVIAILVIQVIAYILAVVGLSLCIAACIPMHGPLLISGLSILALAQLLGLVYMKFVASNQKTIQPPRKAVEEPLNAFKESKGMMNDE

Kd: 2000 nM
Substance: SIRPα (from UniProt P78324)
